Test results from PMC12159680, “Nuclear protein FNBP4: A novel inhibitor of non-diaphanous formin FMN1-mediated actin cytoskeleton dynamics” (The Journal of Biological Chemistry, 2025).

B1: N-terminal WW1-WW2 FNBP4 (domain or fragment, human, UniProt Q8N3X1 214-629, looked up)
chain: GIEMGDWQEVWDENTGCYYYWNTQTNEVTWELPQYLATQVQGLQHYQPSSVPGAETSFVVNTDIYSKEKTISVSSSKSGPVIAKREVKKEVNEGIQALSNSEEEKKGVAASLLAPLLPEGIKEEEERWRRKVICKEEPVSEVKETSTTVEEATTIVKPQEIMLDNIEDPSQEDLCSVVQSGESEEEEEQDTLELELVLERKKAELRALEEGDGSVSGSSPRSDISQPASQDGMRRLMSKRGKWKMFVRATSPESTSRSSSKTGRDTPENGETAIGAENSEKIDENSDKEMEVEESPEKIKVQTTPKVEEEQDLKFQIGELANTLTSKFEFLGINRQSISNFHVLLLQTETRIADWREGALNGNYLKRKLQDAAEQLKQYEINATPKGWSCHWDRDHRRYFYVNEQSGESQWEFPDG

Experiments:
[1] = biological target: FMN1 FH1-FH2 (Mus musculus) (UniProt Q05860); conditions: cited from earlier work
Extended FH2 FMN1 = biological target: T1, Extended FH2 FMN1 (mouse, UniProt Q05860 961-1466); assay: SPR; Biacore T200; WW1-WW2 FNBP4 amine-coupled to a CM5 chip (1016.5 RU); Extended FH2 FMN1 flowed over at various concentrations; HBS-N running buffer; 25 °C; association 120 s, dissociation 380 s; global fit to a 1:1 Langmuir model; conditions: both partners purified
T1 sequence (looked up): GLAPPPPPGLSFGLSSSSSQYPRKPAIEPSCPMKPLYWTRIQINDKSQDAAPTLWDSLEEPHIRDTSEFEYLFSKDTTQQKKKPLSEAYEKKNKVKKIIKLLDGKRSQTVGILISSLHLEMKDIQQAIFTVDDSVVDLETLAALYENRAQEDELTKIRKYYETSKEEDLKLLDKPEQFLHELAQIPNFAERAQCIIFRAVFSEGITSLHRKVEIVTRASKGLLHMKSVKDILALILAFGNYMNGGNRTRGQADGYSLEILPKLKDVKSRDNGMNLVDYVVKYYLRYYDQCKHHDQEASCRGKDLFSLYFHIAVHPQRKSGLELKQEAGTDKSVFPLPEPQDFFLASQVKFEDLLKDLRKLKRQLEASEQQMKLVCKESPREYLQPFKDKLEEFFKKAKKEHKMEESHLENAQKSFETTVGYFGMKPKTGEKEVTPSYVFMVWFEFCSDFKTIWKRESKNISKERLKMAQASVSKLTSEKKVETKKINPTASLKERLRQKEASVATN

FMN1 FH1-FH2 (Mus musculus), sequence (Q05860 870-1435): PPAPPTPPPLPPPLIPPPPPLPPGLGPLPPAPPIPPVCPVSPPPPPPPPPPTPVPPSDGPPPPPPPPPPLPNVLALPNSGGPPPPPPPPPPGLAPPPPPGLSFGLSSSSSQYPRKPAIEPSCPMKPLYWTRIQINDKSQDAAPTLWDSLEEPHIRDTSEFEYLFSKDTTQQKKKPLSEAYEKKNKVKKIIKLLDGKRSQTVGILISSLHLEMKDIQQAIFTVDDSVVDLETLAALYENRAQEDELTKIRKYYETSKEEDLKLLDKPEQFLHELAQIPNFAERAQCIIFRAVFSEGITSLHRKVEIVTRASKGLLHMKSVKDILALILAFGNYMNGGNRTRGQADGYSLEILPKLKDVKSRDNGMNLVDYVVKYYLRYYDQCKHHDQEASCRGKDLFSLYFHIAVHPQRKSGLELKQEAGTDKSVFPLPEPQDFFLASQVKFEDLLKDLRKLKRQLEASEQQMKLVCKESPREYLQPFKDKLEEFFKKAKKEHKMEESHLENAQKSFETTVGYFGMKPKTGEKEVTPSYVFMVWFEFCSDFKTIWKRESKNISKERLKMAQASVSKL

Molecule | Kd [1] | Kd (Extended FH2 FMN1) | koff (Extended FH2 FMN1) | kon (Extended FH2 FMN1)
FNBP4 WW1-WW2 (from UniProt Q6ZQ03) | 2 nM | – | – | –
B1 | – | 36.5 nM | 0.000803 s⁻¹ | 22500 M⁻¹ s⁻¹
